{
  "source": "patent US20240392004A1",
  "about": "(IMMUNOWAKE, published 2024)",
  "assay_in_all_cases": "cell-based or functional assay",
  "key": {"[1]": {"target": "T1, human IL-2 receptor (IL-2Rα, IL-2Rβ, IL-2Rγ) (human, UniProt P01589 22-272; P14784 27-551; P31785 23-369)", "T1 sequence (looked up) 1": "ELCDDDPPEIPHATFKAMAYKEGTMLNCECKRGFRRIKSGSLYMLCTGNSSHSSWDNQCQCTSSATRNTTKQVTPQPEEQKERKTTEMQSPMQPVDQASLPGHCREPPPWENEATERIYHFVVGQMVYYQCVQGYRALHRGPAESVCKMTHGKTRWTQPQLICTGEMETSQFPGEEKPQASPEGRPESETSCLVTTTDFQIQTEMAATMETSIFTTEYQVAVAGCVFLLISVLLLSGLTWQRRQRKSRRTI", "T1 sequence (looked up) 2": "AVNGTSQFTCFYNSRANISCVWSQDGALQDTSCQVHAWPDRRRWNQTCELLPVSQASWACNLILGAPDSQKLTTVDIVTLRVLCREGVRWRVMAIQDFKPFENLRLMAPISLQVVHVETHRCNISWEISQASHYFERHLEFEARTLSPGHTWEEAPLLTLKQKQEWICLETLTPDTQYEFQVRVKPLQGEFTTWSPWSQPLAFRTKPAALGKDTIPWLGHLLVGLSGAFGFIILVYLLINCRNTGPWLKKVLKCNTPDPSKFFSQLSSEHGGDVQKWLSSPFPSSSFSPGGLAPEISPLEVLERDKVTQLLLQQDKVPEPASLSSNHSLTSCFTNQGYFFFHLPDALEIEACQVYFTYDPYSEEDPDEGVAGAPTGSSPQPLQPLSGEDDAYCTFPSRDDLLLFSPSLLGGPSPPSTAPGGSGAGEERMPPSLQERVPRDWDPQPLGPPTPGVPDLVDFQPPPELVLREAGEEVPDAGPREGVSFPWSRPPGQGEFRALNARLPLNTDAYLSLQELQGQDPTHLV", "T1 sequence (looked up) 3": "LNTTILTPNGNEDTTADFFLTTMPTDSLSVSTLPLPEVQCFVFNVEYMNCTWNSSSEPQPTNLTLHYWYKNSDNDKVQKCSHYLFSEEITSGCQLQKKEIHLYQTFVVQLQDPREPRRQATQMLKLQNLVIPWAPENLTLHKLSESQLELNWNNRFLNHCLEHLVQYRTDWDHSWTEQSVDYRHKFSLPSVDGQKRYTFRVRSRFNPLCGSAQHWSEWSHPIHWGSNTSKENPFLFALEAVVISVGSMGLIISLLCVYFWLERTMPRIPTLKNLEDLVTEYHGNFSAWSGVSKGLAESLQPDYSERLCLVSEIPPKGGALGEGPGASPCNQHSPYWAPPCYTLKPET"}, "[2]": {"target": "T2, human PD-1 on cells (HEK-PD-1 reporter cells; activated PBMC) (human, UniProt Q15116 25-288)", "T2 sequence (Q15116 25-288)": "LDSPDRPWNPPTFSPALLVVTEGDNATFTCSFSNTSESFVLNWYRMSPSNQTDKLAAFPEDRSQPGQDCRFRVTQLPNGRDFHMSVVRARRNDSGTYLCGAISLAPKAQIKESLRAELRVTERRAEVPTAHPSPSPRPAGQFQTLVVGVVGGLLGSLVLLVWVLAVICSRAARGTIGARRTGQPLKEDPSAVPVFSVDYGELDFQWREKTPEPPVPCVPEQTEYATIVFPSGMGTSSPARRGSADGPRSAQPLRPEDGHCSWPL"}, "[3]": {"target": "T1, human IL-2 receptor (IL-2Rα, IL-2Rβ, …)", "remark": "listed apart in the source"}, "[4]": {"target": "T2, human PD-1 on cells (HEK-PD-1 reporter …)", "remark": "listed apart in the source"}, "[5]": {"target": "human IL-12 receptor complex (IL-12Rβ1 and IL-12Rβ2) (human, UniProt P42701 24-662; Q99665 24-862)", "sequence (Q99665 24-862, chain 2 of 2, other chains not shown)": "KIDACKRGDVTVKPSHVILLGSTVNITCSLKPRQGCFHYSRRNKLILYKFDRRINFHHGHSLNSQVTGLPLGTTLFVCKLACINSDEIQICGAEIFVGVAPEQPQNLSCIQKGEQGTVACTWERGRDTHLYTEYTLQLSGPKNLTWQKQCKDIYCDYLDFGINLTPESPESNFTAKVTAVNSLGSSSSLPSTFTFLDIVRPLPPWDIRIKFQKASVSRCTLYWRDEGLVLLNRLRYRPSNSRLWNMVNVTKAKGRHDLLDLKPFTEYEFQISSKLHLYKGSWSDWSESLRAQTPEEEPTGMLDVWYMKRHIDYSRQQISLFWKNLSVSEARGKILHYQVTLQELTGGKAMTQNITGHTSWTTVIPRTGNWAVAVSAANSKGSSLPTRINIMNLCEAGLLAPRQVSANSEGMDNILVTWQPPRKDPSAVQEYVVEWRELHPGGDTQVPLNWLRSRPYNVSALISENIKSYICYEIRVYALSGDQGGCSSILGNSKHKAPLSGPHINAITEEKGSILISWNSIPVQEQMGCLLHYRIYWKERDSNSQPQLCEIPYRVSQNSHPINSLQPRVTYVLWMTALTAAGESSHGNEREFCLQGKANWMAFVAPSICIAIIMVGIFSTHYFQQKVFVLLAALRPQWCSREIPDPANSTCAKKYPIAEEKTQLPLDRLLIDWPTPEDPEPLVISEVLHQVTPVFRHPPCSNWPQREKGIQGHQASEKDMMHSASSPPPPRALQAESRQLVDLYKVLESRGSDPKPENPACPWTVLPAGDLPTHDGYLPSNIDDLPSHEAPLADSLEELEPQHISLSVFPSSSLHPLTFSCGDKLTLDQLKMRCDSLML"}},
  "note": "Read-outs that look alike come from different tables or passages of the source.",
  "data": [
    {"binder": "IL-2(L18R/Q22E/R38D/K43E/E61R/Q126T)/PD-L1(mut2)-Fc (Fc fusion) chain 1: FTVTVPKDLYVVEYGSNMTIECKFPVEKQLDLAALQVYWMMEDKNIIQFVHGEEDLKVQHSSYRQRARLLKDQLSLGNAALQITDVKLQDAGVYTCLIAYKGADYKRITVKVNAPYNKINQRILVVDPVTSEHELTCQAEGYPKAEVIWTSSDHQVLSGKTTTTNSKREEKLFNVTSTLRINTTTNEIFYCTFRRLDPEENHTAELVIPELPLAHPPNERGGGGSGGGDKTHTCPPCPAPEDEGGPSVFLFPPKPKDTLMISRTPEVTCVVVDVSHEDPEVKFNWYVDGVEVHNAKTKPREEQYNSTYRVVSVLTVLHQDWLNGKEYKCKVSNKALPAPIEKTISKAKGQPREPQVYVYPPSREEMTKNQVSLTCLVKGFYPSDIAVEWESNGQPENNYKTTPPVLDEDGSFALVSKLTVDKSRWQQGNVFSCSVMHEALHNHYTQKSLSLSPGK chain 2: FTVTVPKDLYVVEYGSNMTIECKFPVEKQLDLAALQVYWMMEDKNIIQFVHGEEDLKVQHSSYRQRARLLKDQLSLGNAALQITDVKLQDAGVYTCLIAYKGADYKRITVKVNAPYNKINQRILVVDPVTSEHELTCQAEGYPKAEVIWTSSDHQVLSGKTTTTNSKREEKLFNVTSTLRINTTTNEIFYCTFRRLDPEENHTAELVIPELPLAHPPNERGGGSGAPTSSSTKKTQLQLEHLRLDLEMILNGINNYKNPKLTDMLTFEFYMPKKATELKHLQCLERELKPLEEVLNLAQSKNFHLRPRDLISNINVIVLELKGSETTFMCEYADETATIVEFLNRWITFCTSIISTLTGGGGSGGGDKTHTCPPCPAPEKKGGPSVFLFPPKPKDTLMISRTPEVTCVVVDVSHEDPEVKFNWYVDGVEVHNAKTKPREEQYNSTYRVVSVLTVLHQDWLNGKEYKCKVSNKALPAPIEKTISKAKGQPREPQVYVLPPSREEMTKNQVSLLCLVKGFYPSDIAVEWESNGQPENRYMTWPPVLDSDGSFFLYSKLTVDKSRWQQGNVFSCSVMHEALHNHYTQKSLSLSPGK", "values": [
      {"measurement": "IL-2 signal transduction, HEK-IL-2", "setting": "[1]", "value": "< 0.1", "unit": "%"},
      {"measurement": "IL-2 signal transduction, HEK-IL-2-PD-1", "setting": "[2]", "value": 5, "unit": "%"}
    ]},
    {"binder": "IL-2(L18R/Q22E/R38D/K43E/E61R/Q126T/S130R)/PD-L1(mut2)-Fc (Fc fusion) chain 1: FTVTVPKDLYVVEYGSNMTIECKFPVEKQLDLAALQVYWMMEDKNIIQFVHGEEDLKVQHSSYRQRARLLKDQLSLGNAALQITDVKLQDAGVYTCLIAYKGADYKRITVKVNAPYNKINQRILVVDPVTSEHELTCQAEGYPKAEVIWTSSDHQVLSGKTTTTNSKREEKLFNVTSTLRINTTTNEIFYCTFRRLDPEENHTAELVIPELPLAHPPNERGGGGSGGGDKTHTCPPCPAPEDEGGPSVFLFPPKPKDTLMISRTPEVTCVVVDVSHEDPEVKFNWYVDGVEVHNAKTKPREEQYNSTYRVVSVLTVLHQDWLNGKEYKCKVSNKALPAPIEKTISKAKGQPREPQVYVYPPSREEMTKNQVSLTCLVKGFYPSDIAVEWESNGQPENNYKTTPPVLDEDGSFALVSKLTVDKSRWQQGNVFSCSVMHEALHNHYTQKSLSLSPGK chain 2: FTVTVPKDLYVVEYGSNMTIECKFPVEKQLDLAALQVYWMMEDKNIIQFVHGEEDLKVQHSSYRQRARLLKDQLSLGNAALQITDVKLQDAGVYTCLIAYKGADYKRITVKVNAPYNKINQRILVVDPVTSEHELTCQAEGYPKAEVIWTSSDHQVLSGKTTTTNSKREEKLFNVTSTLRINTTTNEIFYCTFRRLDPEENHTAELVIPELPLAHPPNERGGGSGAPTSSSTKKTQLQLEHLRLDLEMILNGINNYKNPKLTDMLTFEFYMPKKATELKHLQCLERELKPLEEVLNLAQSKNFHLRPRDLISNINVIVLELKGSETTFMCEYADETATIVEFLNRWITFCTSIIRTLTGGGGSGGGDKTHTCPPCPAPEKKGGPSVFLFPPKPKDTLMISRTPEVTCVVVDVSHEDPEVKFNWYVDGVEVHNAKTKPREEQYNSTYRVVSVLTVLHQDWLNGKEYKCKVSNKALPAPIEKTISKAKGQPREPQVYVLPPSREEMTKNQVSLLCLVKGFYPSDIAVEWESNGQPENRYMTWPPVLDSDGSFFLYSKLTVDKSRWQQGNVFSCSVMHEALHNHYTQKSLSLSPGK", "values": [
      {"measurement": "IL-2 signal transduction, HEK-IL-2", "setting": "[1]", "value": "< 0.1", "unit": "%"},
      {"measurement": "IL-2 signal transduction, HEK-IL-2-PD-1", "setting": "[2]", "value": "< 0.1", "unit": "%"}
    ]},
    {"binder": "IL-2(L18R/Q22E/R38D/K43E/E61R)/IL-12(E59A/F60A)/PD-L1(mut2)-Fc (Fc fusion) chain 1: FTVTVPKDLYVVEYGSNMTIECKFPVEKQLDLAALQVYWMMEDKNIIQFVHGEEDLKVQHSSYRQRARLLKDQLSLGNAALQITDVKLQDAGVYTCLIAYKGADYKRITVKVNAPYNKINQRILVVDPVTSEHELTCQAEGYPKAEVIWTSSDHQVLSGKTTTTNSKREEKLFNVTSTLRINTTTNEIFYCTFRRLDPEENHTAELVIPELPLAHPPNERGGGGSGGGIWELKKDVYVVELDWYPDAPGEMVVLTCDTPEEDGITWTLDQSSEVLGSGKTLTIQVKAAGDAGQYTCHKGGEVLSHSLLLLHKKEDGIWSTDILKDQKEPKNKTFLRCEAKNYSGRFTCWWLTTISTDLTFSVKSSRGSSDPQGVTCGAATLSAERVRGDNKEYEYSVECQEDSACPAAEESLPIEVMVDAVHKLKYENYTSSFFIRDIIKPDPPKNLQLKPLKNSRQVEVSWEYPDTWSTPHSYFSLTFCVQVQGKSKREKKDRVFTDKTSATVICRKNASISVRAQDRYYSSSWSEWASVPCSGGGGSGGGSGGGGSRNLPVATPDPGMFPCLHHSQNLLRAVSNMLQKARQTLEFYPCTSEEIDHEDITKDKTSTVEACLPLELTKNESCLNSRETSFITNGSCLASRKTSFMMALCLSSIYEDLKMYQVEFKTMNAKLLMDPKRQIFLDQNMLAVIDELMQALNFNSETVPQKSSLEEPDFYKTKIKLCILLHAFRIRAVTIDRVMSYLNASGGGGSGGGDKTHTCPPCPAPEDEGGPSVFLFPPKPKDTLMISRTPEVTCVVVDVSHEDPEVKFNWYVDGVEVHNAKTKPREEQYNSTYRVVSVLTVLHQDWLNGKEYKCKVSNKALPAPIEKTISKAKGQPREPQVYVYPPSREEMTKNQVSLTCLVKGFYPSDIAVEWESNGQPENNYKTTPPVLDEDGSFALVSKLTVDKSRWQQGNVFSCSVMHEALHNHYTQKSLSLSPGK chain 2: FTVTVPKDLYVVEYGSNMTIECKFPVEKQLDLAALQVYWMMEDKNIIQFVHGEEDLKVQHSSYRQRARLLKDQLSLGNAALQITDVKLQDAGVYTCLIAYKGADYKRITVKVNAPYNKINQRILVVDPVTSEHELTCQAEGYPKAEVIWTSSDHQVLSGKTTTTNSKREEKLFNVTSTLRINTTTNEIFYCTFRRLDPEENHTAELVIPELPLAHPPNERGGGSGAPTSSSTKKTQLQLEHLRLDLEMILNGINNYKNPKLTDMLTFEFYMPKKATELKHLQCLERELKPLEEVLNLAQSKNFHLRPRDLISNINVIVLELKGSETTFMCEYADETATIVEFLNRWITFCQSIISTLTGGGGSGGGDKTHTCPPCPAPEKKGGPSVFLFPPKPKDTLMISRTPEVTCVVVDVSHEDPEVKFNWYVDGVEVHNAKTKPREEQYNSTYRVVSVLTVLHQDWLNGKEYKCKVSNKALPAPIEKTISKAKGQPREPQVYVLPPSREEMTKNQVSLLCLVKGFYPSDIAVEWESNGQPENRYMTWPPVLDSDGSFFLYSKLTVDKSRWQQGNVFSCSVMHEALHNHYTQKSLSLSPGK", "values": [
      {"measurement": "IL-2 signal transduction, HEK-IL-2", "setting": "[3]", "value": 4, "unit": "%"},
      {"measurement": "IL-2 signal transduction, HEK-IL-2-PD-1", "setting": "[4]", "value": 35, "unit": "%"},
      {"measurement": "IL-12 signal transduction, HEK-IL-12-PD-1", "setting": "[4]", "value": 19, "unit": "%"},
      {"measurement": "IL-12 signal transduction, HEK-IL-12", "setting": "[5]", "value": "< 0.2", "unit": "%"}
    ]}
  ]
}
